Assays:
Assay in all cases: Kinetic parameters for hydrolysis of internally quenched fluorogenic peptides by secPHEX
Type in all cases: biochemical, human
Details in all cases: other: 37° C., 10 mM Bis-Tris buffer pH 5.5, 150 mM NaCl
[1] = substrate: C[C@H](NC(=O)[C@H](CC(=O)O)NC(=O)[C@H](CCC(=O)O)NC(=O)[C@H](CO)NC(=O)[C@H](CCCNC(=N)N)NC(=O)c1ccccc1N)C(=O)NCC(=O)N[C@@H](Cc1ccccc1)C(=O)N[C@@H](CCC(N)=O)C(=O)NCCNc1ccc([N+](=O)[O-])cc1[N+](=O)[O-]
Protocol: (§1) The human recombinant secPHEX was obtained following the procedure previously described (17, WO 00/50580). Purified secPHEX concentration was determined using the Bradford method (DC protein assay kit; Bio-Rad, Mississauga, ON, Canada). Membrane-bound recombinant human PHEX was expressed in LLC-PK1 cells (17, (WO 00/50580)) and membranes were prepared essentially as described by Guo et al. (34). Briefly, transfected cells resuspended in lysis buffer (150 mM NaCl, 20 mM Tris.HCl, pH 7.6) were disrupted by sonication. Cell debris were removed by centrifugation at 300 g for 15 min at 4 °C. Membranes were collected by centrifugation at 30,000 g for 50 min and solubilized for 2h with 1% n-dodecyl-β-D-maltoside in lysis buffer. Insoluble material was pelleted by centrifugation at 10,000 g for 15 min and protein concentrations of the supernatant determined using the Bradford method described above. PHEX amounts were evaluated by immunoblotting as described previously (17). NEP expression and purification were performed as described previously (36).
(§2) The hydrolysis of the IQFPs, at 37° C., in 10 mM Bit-Tris buffer pH 5.5 (0.35 to 1.0 ml final volume) containing 150 mM NaCl, was continuously followed measuring the fluorescence at γem=420 nm and γex=320 nm in a Hitachi F-2000™ spectrofluorometer. The cuvefte containing the buffer and the substrate was placed in a thermostatically controlled cell compartment for 5 min before the addition of the enzyme and the increase in fluorescence with time was continuously recorded for 5-10 min. The enzyme concentration for initial rate determination was chosen at a level intended to hydrolyze less than 5% of the substrate present. The slope was converted into micromoles of substrate hydrolyzed per min based on a calibration curve obtained from complete hydrolysis of each peptide. The inner-filter effect was corrected using an empirical equation as previously described (43). The kinetic parameters Km and kcat were calculated by the non-linear regression data analysis Grafit program (42). The kcat/Km values were calculated as the ratio of these two determined parameters. The apparent second order rate constant kcat/Km (*kIt/Km) was determined under pseudo first-order conditions, where [S]<<Km. These determinations were performed in two different substrate concentrations and the errors were less than 5% for any obtained value.
(§3) To determine the position of cleavage in peptides of the IQFPs combinatorial libraries, the products resulting from hydrolysis by secPHEX were submitted to N-terminal amino acid sequencing in a PPSQ-23protein sequencer (Shimadzu Tokyo, Japan). The scissile bonds in the IQFPs secPHEX substrates derived from PTHrP107-139, FGF-23and MEPE were determined by amino acid sequencing and by MALDI-TOF™ mass spectrometry (TofSpec-E™, Micromass, Manchester, U.K.) after isolation of the fragments resulting from the hydrolysis by secPHEX by analytical HPLC.
(§4) The assays were performed at 37° C., in 10 mM Bis-Tris buffer pH 5.5, containing 150 mM NaCl. Measurements were made as described under the heading “Experimental Procedures” above. Cleavage sites are indicated as arrows (↓). The standard deviations of the kinetic constants were less than 5%.
(§5) The assays were performed at 37° C., in 10 mM Bis-Tris buffer pH 5.5, containing 150 mM NaCl. Measurements were made as described under the heading “Experimental Procedures” above. Cleavage sites are indicated by arrows (↓). The standard deviations of the kinetic constants were less than 5%.
(§6) The assays were. performed at 37° C., in 10 mM Bis-Tris buffer pH 5.5, containing 150 mM NaCl. Measurements were made as described under the heading “Experimental Procedures” above. Cleavage sites are indicated by arrows (↓). The standard deviations of the kinetic constants were less than 5%.
(§7) The assays were performed at 37° C., in 10 mM Bis-Tris buffer pH 5.5, containing 150 mM NaCl. Measurements were made as described under “Experimental Procedures”. […]

[2] = substrate: Nc1ccccc1C(=O)NCC(=O)N[C@@H](Cc1ccccc1)C(=O)N[C@@H](CO)C(=O)N[C@@H](CC(=O)O)C(=O)N[C@@H](Cc1ccc(O)cc1)C(=O)N[C@@H](CCCCNc1ccc([N+](=O)[O-])cc1[N+](=O)[O-])C(=O)O
Protocol: as §1, §2, §3, §4, §5, §6, §7

[3] = substrate: C[C@H](NC(=O)[C@H](C)NC(=O)[C@H](CC(=O)O)NC(=O)[C@H](CO)NC(=O)[C@H](CO)NC(=O)CNC(=O)c1ccccc1N)C(=O)N[C@@H](CCC(=O)O)C(=O)N[C@@H](CCC(N)=O)C(=O)NCCNc1ccc([N+](=O)[O-])cc1[N+](=O)[O-]
Protocol: as §1, §2, §3, §4, §5, §6, §7

[4] = substrate: CSCC[C@H](NC(=O)[C@H](CCC(=O)O)NC(=O)[C@H](CC(N)=O)NC(=O)c1ccccc1N)C(=O)N[C@@H](CC(=O)O)C(=O)N[C@@H](CO)C(=O)N[C@@H](Cc1ccccc1)C(=O)N[C@@H](CC(N)=O)C(=O)N[C@@H](CCC(N)=O)C(=O)NCCNc1ccc([N+](=O)[O-])cc1[N+](=O)[O-]
Protocol: as §1, §2, §3, §4, §5, §6, §7

[5] = substrate: CC(C)C[C@H](NC(=O)[C@H](Cc1c[nH]c2ccccc12)NC(=O)[C@H](C)NC(=O)c1ccccc1N)C(=O)N[C@@H](CC(=O)O)C(=O)N[C@@H](CO)C(=O)NCC(=O)N[C@H](C(=O)N[C@@H](CCC(N)=O)C(=O)NCCNc1ccc([N+](=O)[O-])cc1[N+](=O)[O-])C(C)C
Protocol: as §1, §2, §3, §4, §5, §6, §7

B1: human recombinant secPHEX (Homo sapiens) (protein)
chain: SLQAKQEYCLKPECIEAAAAILSKVNLSVDPCDNFFRFACDGWISNNPIPEDMPSYGVYPWLRHNVDLKLKELLEKSISRRRDTEAIQKAKILYSSCMNEKAIEKADAKPLLHILRHSPFRWPVLESNIGPEGVWSERKFSLLQTLATFRGQYSNSVFIRLYVSPDDKASNEHILKLDQATLSLAVREDYLDNSTEAKSYRDALYKFMVDTAVLLGANSSRAEHDMKSVLRLEIKIAEIMIPHENRTSEAMYNKMNISELSAMIPQFDWLGYIKKVIDTRLYPHLKDISPSENVVVRVPQYFKDLFRILGSERKKTIANYLVWRMVYSRIPNLSRRFQYRWLEFSRVIQGTTTLLPQWDKCVNFIESALPYVVGKMFVDVYFQEDKKEMMEELVEGVRWAFIDMLEKENEWMDAGTKRKAKEKARAVLAKVGYPEFIMNDTHVNEDLKAIKFSEADYFGNVLQTRKYLAQSDFFWLRKAVPKTEWFTNPTTVNAFYSASTNQIRFPAGELQKPFFWGTEYPRSLSYGAIGVIVGHEFTHGFDNNGRKYDKNGNLDPWWSTESEEKFKEKTKCMINQYSNYYWKKAGLNVKGKRTLGENIADNGGLREAFRAYRKWINDRRQGLEEPLLPGITFTNNQLFFLSYAHVRCNSYRPEAAREQVQIGAHSPPQFRVNGAISNFEEFQKAFNCPPNSTMNRGMDSCRLW
notes: pure soluble form of PHEX (secPHEX); made in house
B1 gave a Km [1] of 4.1 µM, a kcat [1] of 0.06 s⁻¹ and a kcat/Km [1] of 14600 M⁻¹ s⁻¹. It also gave a Km [2] of 3.0 µM, a kcat [2] of 0.5 s⁻¹ and a kcat/Km [2] of 166700 M⁻¹ s⁻¹. It also gave a Km [3] of 2.4 µM, a kcat [3] of 0.3 s⁻¹ and a kcat/Km [3] of 125000 M⁻¹ s⁻¹. It also gave a Km [4] of 38.0 µM, a kcat [4] of 0.3 s⁻¹ and a kcat/Km [4] of 7900 M⁻¹ s⁻¹. The Km [5] was 1.5 µM, the kcat [5] was 0.04 s⁻¹ and the kcat/Km [5] was 26700 M⁻¹ s⁻¹.

Reference: US20060292657A1, “Phex substrates and methods using same” (priority 2003, published 2006)
